Laboratory results reported in US20230293738A1 (Y MABS THERAPEUTICS, published 2023).
Changes are numbered by the printed parent chain. Like-named read-outs stand apart in the source and are kept apart here. Values belong to the molecule of their own block, whether it stands above or below them.

Assays:
[1] = molecular target: T1, human 2Ig-B7H3 (B7H3-2Ig-His) (human, UniProt Q5ZPR3 29-466); assay: SPR, Biacore T200, 2Ig-B7H3-His on CM5 chip, 1:1 fit
T1 construct: Recombinant His-tagged protein immobilised on a CM5 chip; also called 21g-B7H3; B7H3-21g-His; not shown: His tag
T1 sequence: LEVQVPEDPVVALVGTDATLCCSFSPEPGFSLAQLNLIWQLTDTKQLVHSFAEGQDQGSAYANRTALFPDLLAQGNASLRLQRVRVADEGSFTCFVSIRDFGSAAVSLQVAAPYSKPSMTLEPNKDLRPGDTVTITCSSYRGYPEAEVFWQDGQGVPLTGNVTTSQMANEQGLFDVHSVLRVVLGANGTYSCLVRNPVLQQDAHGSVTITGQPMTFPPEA

[2] = molecular target: T2, human 4Ig-B7H3 (B7H3-4Ig-His) (human, UniProt Q5ZPR3 29-466); assay: SPR, Biacore T200, 4Ig-B7H3-His on CM5 chip, 1:1 fit
T2 construct: Recombinant His-tagged protein immobilised on a CM5 chip; also called 41g-B7H3; human 4Ig-B7-H3 (dominant isoform); not shown: His tag
T2 sequence: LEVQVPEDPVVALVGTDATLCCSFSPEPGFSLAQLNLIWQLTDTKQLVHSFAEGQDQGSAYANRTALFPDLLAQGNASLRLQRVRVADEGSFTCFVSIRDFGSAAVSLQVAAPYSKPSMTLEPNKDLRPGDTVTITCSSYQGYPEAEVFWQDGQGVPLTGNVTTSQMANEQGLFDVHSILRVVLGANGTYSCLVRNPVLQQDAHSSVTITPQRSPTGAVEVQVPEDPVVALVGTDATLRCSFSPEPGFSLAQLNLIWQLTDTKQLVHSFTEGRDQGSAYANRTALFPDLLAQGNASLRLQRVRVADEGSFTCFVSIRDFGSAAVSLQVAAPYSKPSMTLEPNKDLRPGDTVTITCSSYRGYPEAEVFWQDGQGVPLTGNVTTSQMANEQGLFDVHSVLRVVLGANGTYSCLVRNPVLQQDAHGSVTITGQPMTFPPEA

[3] = molecular target: T1, human 2Ig-B7H3 (B7H3-2Ig-His); assay: SPR, Biacore T200, 2Ig-B7H3-His on CM5 chip, 1:1 fit; * beyond fitting limits
[4] = molecular target: T2, human 4Ig-B7H3 (B7H3-4Ig-His); assay: SPR, Biacore T200, 4Ig-B7H3-His on CM5 chip, 1:1 fit; remark: listed apart in the source
Procedure: (§1) Both human B7H3 41g and 21g proteins were dissolved in PBS (Phosphate-Buffered Saline) to make 0.1 mg/ml stock solution and stored in −80° C. B7-H3 proteins were immobilized onto the CM5 sensor chip using Amine Coupling Kit. Both proteins were diluted to 10 ug/ml with 10 mM Sodium acetate, pH 5.0. […] A blank immobilized surface was used as a control
(§2) Binding Assays: [0143] 1. Antibodies were diluted in HBS-EP buffer (10 mM HEPES, 150 mM NaCl, 3 mM EDTA, 0.05% Surfactant P20, pH 7.4) at varying concentrations (25-50-100-200-400 nM) prior to analysis. […] 2. Samples (60 ul) were injected over the sensor surface at a flow rate of 30 ul/min over 2 min. [0145] 3. Following completion of the association phase, dissociation was monitored in HBS-EP buffer for 10 min at the same flow rate. […] 4. At the end of each cycle, the surface was regenerated using 10 mM NaOH at a flow rate of 50 ul/min over 2×15 sec.

[5] = molecular target: T1, human 2Ig-B7H3 (B7H3-2Ig-His); assay: SPR, Biacore T200, 2Ig-B7H3-His on CM5 chip, 1:1 fit; remark: listed apart in the source
Procedure: as §1, §2
(§3) The data were analyzed by the 1:1 fitting model and default parameter setting for the rate constants using the Biacore T200 Evaluation Software, and the apparent association on rate constant (kon, ka), dissociation off rate constant (koff, kd) and equilibrium dissociation constant (KD=kd/ka) were calculated.

[6] = molecular target: T2, human 4Ig-B7H3 (B7H3-4Ig-His); assay: SPR, Biacore T200, 4Ig-B7H3-His on CM5 chip, 1:1 fit; remark: listed apart in the source
Procedure: as §1, §3

[7] = molecular target: T1, human 2Ig-B7H3 (B7H3-2Ig-His); assay: SPR, Biacore T200, 2Ig-B7H3-His on CM5 chip, 1:1 fit; remark: listed apart in the source
Procedure: as §1, §3

[8] = molecular target: T1, human 2Ig-B7H3 (B7H3-2Ig-His); assay: SPR; CHX-A''-DTPA conjugate, CAR 0.6, unlabeled
[9] = molecular target: T2, human 4Ig-B7H3 (B7H3-4Ig-His); assay: SPR
Procedure: as §1, §2

[10] = molecular target: T1, human 2Ig-B7H3 (B7H3-2Ig-His); assay: SPR
Procedure: as §1, §2

[11] = molecular target: T1, human 2Ig-B7H3 (B7H3-2Ig-His); assay: SPR, Biacore T200, 2Ig-B7H3-His on CM5 chip, 1:1 fit; CHX-A''-DTPA conjugate, CAR 6.1, labeled with cold 175Lu
Procedure: as §1, §2

[12] = molecular target: T2, human 4Ig-B7H3 (B7H3-4Ig-His); assay: SPR; remark: listed apart in the source
Procedure: as §1, §3

[13] = molecular target: T1, human 2Ig-B7H3 (B7H3-2Ig-His); assay: SPR; remark: listed apart in the source
Procedure: as §1, §3

[14] = molecular target: T1, human 2Ig-B7H3 (B7H3-2Ig-His); assay: SPR, Biacore T200, 2Ig-B7H3-His on CM5 chip, 1:1 fit; DOTA conjugate, CAR 6.3, labeled with cold 175Lu
Procedure: as §1, §2

[15] = molecular target: T1, human 2Ig-B7H3 (B7H3-2Ig-His); assay: SPR; CHX-A''-DTPA conjugate, CAR 1.4, unlabeled
[16] = molecular target: T1, human 2Ig-B7H3 (B7H3-2Ig-His); assay: SPR, Biacore T200, 2Ig-B7H3-His on CM5 chip, 1:1 fit; CHX-A''-DTPA conjugate, CAR 3.6, unlabeled
[17] = molecular target: T1, human 2Ig-B7H3 (B7H3-2Ig-His); assay: SPR; CHX-A''-DTPA conjugate, CAR 3, labeled with cold 175Lu
Procedure: as §1, §2

[18] = molecular target: T1, human 2Ig-B7H3 (B7H3-2Ig-His); assay: SPR; CHX-A''-DTPA conjugate, CAR 1.4, labeled with cold 175Lu
Procedure: as §1, §2

Molecule: 127I-Humanized-8H9-antibody
- Kd [1]: 0.00212 nM
- kon [1]: 361000 M⁻¹ s⁻¹
- t ½ [1]: 251 h
- Kd [2]: 0.24 nM
- koff [2]: 2.68e-05 s⁻¹
- kon [2]: 112000 M⁻¹ s⁻¹
- t ½ [2]: 7.17 h
- koff [3]: 7.66e-07 s⁻¹

B1: 8H9 antibody conjugated with p-SCN-Bn-DOTA, CAR 0.8 (antibody, mouse IgG1, kappa, V domains shown)
VH: QVQLQQSGAELVKPGASVKLSCKASGYTFTNYDINWVRQRPEQGLEWIGWIFPGDGSTQYNEKFKGKATLTTDTSSSTAYMQLSRLTSEDSAVYFCARQTTATWFAYWGQGTLVTVSA
VL: DIVMTQSPATLSVTPGDRVSLSCRASQSISDYLHWYQQKSHESPRLLIKYASQSISGIPSRFSGSGSGSDFTLSINSVEPEDVGVYYCQNGHSFPLTFGAGTKLELKR
modifications: p-SCN-Bn-DOTA conjugated, CAR 0.8 per antibody; sites not stated
notes: Chelator conjugate, not metal-labelled
- Kd [4]: 5.76 nM
- t ½ [4]: 1.67 h
- Kd [5]: 0.166 nM
- T ½ [5]: 39.2 h

B3: 8H9 antibody conjugated with p-SCN-Bn-CHX-A″-DTPA, CAR 0.6 (antibody, mouse IgG1, kappa, V domains shown)
VH: B1 VH
VL: B1 VL
modifications: p-SCN-Bn-CHX-A″-DTPA conjugated, CAR 0.6 per antibody; sites not stated
notes: Chelator conjugate, not metal-labelled; also called conj-CHX-A″-DTPA (CAR0.6)
- Kd [4]: 10.1 nM
- t ½ [4]: 0.883 h
- Kd [5]: 1.22 nM
- T ½ [5]: 5.72 h
- Kd [8]: 1.22 nM
- Kd [9]: 10.1 nM
- t ½ [9]: 0.883 h
- t ½ [10]: 5.72 h

B4: 8H9 antibody conjugated with p-SCN-Bn-DOTA, CAR 2.4 (antibody, mouse IgG1, kappa, V domains shown)
VH: B1 VH
VL: B1 VL
modifications: p-SCN-Bn-DOTA conjugated, CAR 2.4 per antibody; sites not stated
notes: as for B1
- Kd [4]: 8.61 nM
- t ½ [4]: 1.4 h
- Kd [5]: 0.222 nM
- T ½ [5]: 41.1 h

B7: 8H9 antibody conjugated with p-SCN-Bn-DOTA, CAR 2.6 (antibody, mouse IgG1, kappa, V domains shown)
VH: B1 VH
VL: B1 VL
modifications: p-SCN-Bn-DOTA conjugated, CAR 2.6 per antibody; sites not stated
notes: as for B1
- Kd [4]: 7.57 nM
- t ½ [4]: 1.42 h
- Kd [5]: 0.58 nM
- T ½ [5]: 14 h

B8: 8H9 antibody conjugated with p-SCN-Bn-CHX-A″-DTPA, CAR 1.4 (antibody, mouse IgG1, kappa, V domains shown)
VH: B1 VH
VL: B1 VL
modifications: p-SCN-Bn-CHX-A″-DTPA conjugated, CAR 1.4 per antibody; sites not stated
notes: as for B1
- Kd [4]: 10 nM
- t ½ [4]: 1.09 h
- Kd [15]: 1.93 nM
- Kd [5]: 1.93 nM
- T ½ [5]: 3.94 h
- Kd [9]: 10 nM
- t ½ [9]: 1.09 h
- t ½ [10]: 3.94 h

B9: 8H9 antibody conjugated with p-SCN-Bn-CHX-A″-DTPA, CAR 3.6 (antibody, mouse IgG1, kappa, V domains shown)
VH: B1 VH
VL: B1 VL
modifications: p-SCN-Bn-CHX-A″-DTPA conjugated, CAR 3.6 per antibody; sites not stated
notes: as for B1
- Kd [4]: 26.9 nM
- t ½ [4]: 0.508 h
- Kd [16]: 9.46 nM
- T ½ [5]: 1.25 h
- Kd [9]: 26.9 nM
- t ½ [9]: 0.508 h
- t ½ [10]: 1.25 h

B12: 175Lu-DOTA-8H9-antibody (CAR2.6) (antibody, mouse IgG1, kappa, V domains shown)
VH: B1 VH
VL: B1 VL
modifications: p-SCN-Bn-DOTA conjugated (CAR 2.6 per antibody), labelled with cold lutetium-175; sites not stated
- Kd [6]: 15.7 nM
- t ½ [6]: 0.822 h
- Kd [7]: 1.74 nM
- t ½ [7]: 6.11 h

B13: 8H9 antibody conjugated with p-SCN-Bn-DOTA, CAR 7.5 (antibody, mouse IgG1, kappa, V domains shown)
VH: B1 VH
VL: B1 VL
modifications: p-SCN-Bn-DOTA conjugated, CAR 7.5 per antibody; sites not stated
notes: as for B1
- Kd [4]: 14.6 nM
- t ½ [4]: 1.03 h
- Kd [5]: 1.71 nM
- T ½ [5]: 6.58 h

The remaining lines, values ahead:

- Kd [6]: 8.87 nM
- koff [6]: 0.000251 s⁻¹
- kon [6]: 28300 M⁻¹ s⁻¹
- t ½ [6]: 0.769 h
- Kd [7]: 2.22 nM
- koff [7]: 0.000102 s⁻¹
- kon [7]: 45900 M⁻¹ s⁻¹
- t ½ [7]: 1.89 h
B2: hu8H9-3.1 (antibody, V domains shown)
VH: QVQLVQSGAEVVKPGASVKLSCKTSGYTFTNYDINWVRQRPGQGLEWIGWIFPGDDSTQYNEKFKGKATLTTDTSTSTAYMELSSLRSEDTAVYFCARQTTGTWFAYWGQGTLVTVSS
VL: B1 VL with D1E, T14S, D17E, S20T, H34Y, S60A, D70E, S74T, A100Q

- Kd [11]: 7.21 nM
- Kd [12]: 34 nM
- t ½ [12]: 0.4 h
- t ½ [13]: 1.82 h
- Kd [6]: 34 nM
- t ½ [6]: 0.4 h
- t ½ [7]: 1.82 h
B5: 175Lu-DTPA-8H9-antibody (CAR6.1) (antibody, mouse IgG1, kappa, V domains shown)
VH: B1 VH
VL: B1 VL
modifications: p-SCN-Bn-CHX-A″-DTPA conjugated (CAR 6.1 per antibody), labelled with cold lutetium-175; sites not stated

- Kd [6]: 19.5 nM
- t ½ [6]: 0.742 h
- Kd [14]: 2.34 nM
- t ½ [7]: 5.39 h
B6: 175Lu-DOTA-8H9-antibody (CAR6.3) (antibody, mouse IgG1, kappa, V domains shown)
VH: B1 VH
VL: B1 VL
modifications: p-SCN-Bn-DOTA conjugated (CAR 6.3 per antibody), labelled with cold lutetium-175; sites not stated

- Kd [12]: 16.2 nM
- t ½ [12]: 0.811 h
- t ½ [13]: 5.94 h
- Kd [6]: 16.2 nM
- t ½ [6]: 0.811 h
- Kd [7]: 1.8 nM
- t ½ [7]: 5.94 h
- Kd [17]: 1.8 nM
B10: 175Lu-DTPA-8H9-antibody (CAR3) (antibody, mouse IgG1, kappa, V domains shown)
VH: B1 VH
VL: B1 VL
modifications: p-SCN-Bn-CHX-A″-DTPA conjugated (CAR 3 per antibody), labelled with cold lutetium-175; sites not stated

- Kd [18]: < 0.316 nM
- Kd [12]: 7.64 nM
- t ½ [12]: 1.26 h
- t ½ [13]: 28.1 h
- Kd [6]: 7.64 nM
- t ½ [6]: 1.26 h
- Kd [7]: 0.217 nM
- t ½ [7]: 28.1 h
B11: 175Lu-DTPA-8H9-antibody (CAR1.4) (antibody, mouse IgG1, kappa, V domains shown)
VH: B1 VH
VL: B1 VL
modifications: p-SCN-Bn-CHX-A″-DTPA conjugated (CAR 1.4 per antibody), labelled with cold lutetium-175; sites not stated
